Data taken from US20190389951A1 (Regeneron, published 2019).
Values belong to the binder of their own block, whether it stands above or below them.

What was measured:
[1] = target: T1, human CD28 on cells (HEK293/hCD28 cells, human T cells, engineered reporter T-cells) (human, UniProt P10747 19-220); assay: cell-based or functional assay
[2] = target: T1, human CD28 on cells (HEK293/hCD28 …); assay: cell-based or functional assay; remark: listed apart in the source
[3] = target: T2, human PSMA on cells (C4-2, 22RV1, HEK293/hCD20/hPSMA) (human, UniProt Q04609 1-750); assay: flow cytometry, C4-2 cells
T2 construct: C4-2 and 22RV1 express PSMA endogenously; also called FOLH1

[4] = target: T2, human PSMA on cells (C4-2, 22RV1, …); assay: flow cytometry, 22RV1 cells
[5] = target: T1, human CD28 on cells (HEK293/hCD28 …); assay: flow cytometry, human CD2+ T cells
[6] = target: T1, human CD28 on cells (HEK293/hCD28 …); assay: flow cytometry, human CD4+ T cells
[7] = target: T1, human CD28 on cells (HEK293/hCD28 …); assay: flow cytometry, human CD8+ T cells
[8] = target: T2, human PSMA on cells (C4-2, 22RV1, …); assay: electrochemiluminescence cell binding (MSD), C4-2 cells
[9] = target: T3, 6h.hPSMA (recombinant Human PSMA/FOLH1 Protein, R&D, Catalog #4234-ZN) (human, UniProt Q04609 44-750); assay: SPR (Biacore), captured antibody, 10 nM hPSMA.6H row, 37 C
T3 construct: Bought protein; also called hPSMA.6H; hPSMA with an N-terminal polyhistidine tag; not shown: N-terminal polyhistidine (6-His) tag

[10] = target: T3, 6h.hPSMA (recombinant Human PSMA/FOLH1 …); assay: SPR (Biacore), captured antibody, 20 nM hPSMA.6H row, 37 C
[11] = target: T4, hCD28.mmh (hCD28 ecto (N19-P152).mmh) (human); assay: SPR (Biacore), captured antibody, soluble hCD28 injected, 37 C
T4 construct: also called REGN2011

[12] = target: T1, human CD28 on cells (HEK293/hCD28 …); assay: electrochemiluminescence cell binding (MSD), HEK293-hCD28 cells
[13] = target: T3, 6h.hPSMA (recombinant Human PSMA/FOLH1 …); assay: SPR (Biacore T-200), antibody captured on anti-human Fc, 6h.hPSMA injected, 25 C
[14] = target: T4, hCD28.mmh (hCD28 ecto (N19-P152).mmh); assay: SPR (Biacore T-200), antibody captured on anti-human Fc, hCD28.mmh injected, 25 C
[15] = target: T2, human PSMA on cells (C4-2, 22RV1, …); assay: flow cytometry (FACS binding), MFI_APC against antibody concentration; the sheet does not name the cells; legend paragraph 55: cancer cell lines with endogenous PSMA; unit taken from the axis Log10 (M)
[16] = target: T1, human CD28 on cells (HEK293/hCD28 …); assay: cell-based or functional assay; remark: listed apart in the source
[17] = target: T1, human CD28 on cells (HEK293/hCD28 …); assay: electrochemiluminescence cell binding (MSD)
[18] = target: T2, human PSMA on cells (C4-2, 22RV1, …); assay: electrochemiluminescence cell binding (MSD)
[19] = target: T2, human PSMA on cells (C4-2, 22RV1, …); assay: electrochemiluminescence cell binding (MSD), C4-2 cells; concentrations above 11.1 nM excluded
[20] = target: T2, human PSMA on cells (C4-2, 22RV1, …); assay: electrochemiluminescence cell binding (MSD), supplemental experiment, C4-2 P-7 cells

T3 sequence (Q04609 44-750 limits assumed): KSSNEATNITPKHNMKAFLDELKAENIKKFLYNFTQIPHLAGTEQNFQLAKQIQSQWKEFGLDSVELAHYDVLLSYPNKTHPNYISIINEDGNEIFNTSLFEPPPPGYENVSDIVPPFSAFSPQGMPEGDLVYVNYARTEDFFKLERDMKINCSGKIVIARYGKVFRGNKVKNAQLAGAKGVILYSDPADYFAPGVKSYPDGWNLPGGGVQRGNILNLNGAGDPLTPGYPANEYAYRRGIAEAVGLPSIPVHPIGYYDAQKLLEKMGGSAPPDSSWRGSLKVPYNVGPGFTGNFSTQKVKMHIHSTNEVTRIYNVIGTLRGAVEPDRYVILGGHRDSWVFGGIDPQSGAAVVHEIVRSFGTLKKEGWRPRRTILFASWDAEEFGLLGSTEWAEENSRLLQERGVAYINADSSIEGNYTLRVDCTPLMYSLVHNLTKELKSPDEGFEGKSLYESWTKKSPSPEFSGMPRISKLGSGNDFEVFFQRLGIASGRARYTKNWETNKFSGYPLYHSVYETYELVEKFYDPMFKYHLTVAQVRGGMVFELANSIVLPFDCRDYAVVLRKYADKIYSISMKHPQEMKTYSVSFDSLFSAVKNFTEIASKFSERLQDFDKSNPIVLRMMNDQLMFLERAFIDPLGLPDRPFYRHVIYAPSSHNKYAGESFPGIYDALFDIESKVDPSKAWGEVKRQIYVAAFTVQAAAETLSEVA
T2 sequence (Q04609 whole entry): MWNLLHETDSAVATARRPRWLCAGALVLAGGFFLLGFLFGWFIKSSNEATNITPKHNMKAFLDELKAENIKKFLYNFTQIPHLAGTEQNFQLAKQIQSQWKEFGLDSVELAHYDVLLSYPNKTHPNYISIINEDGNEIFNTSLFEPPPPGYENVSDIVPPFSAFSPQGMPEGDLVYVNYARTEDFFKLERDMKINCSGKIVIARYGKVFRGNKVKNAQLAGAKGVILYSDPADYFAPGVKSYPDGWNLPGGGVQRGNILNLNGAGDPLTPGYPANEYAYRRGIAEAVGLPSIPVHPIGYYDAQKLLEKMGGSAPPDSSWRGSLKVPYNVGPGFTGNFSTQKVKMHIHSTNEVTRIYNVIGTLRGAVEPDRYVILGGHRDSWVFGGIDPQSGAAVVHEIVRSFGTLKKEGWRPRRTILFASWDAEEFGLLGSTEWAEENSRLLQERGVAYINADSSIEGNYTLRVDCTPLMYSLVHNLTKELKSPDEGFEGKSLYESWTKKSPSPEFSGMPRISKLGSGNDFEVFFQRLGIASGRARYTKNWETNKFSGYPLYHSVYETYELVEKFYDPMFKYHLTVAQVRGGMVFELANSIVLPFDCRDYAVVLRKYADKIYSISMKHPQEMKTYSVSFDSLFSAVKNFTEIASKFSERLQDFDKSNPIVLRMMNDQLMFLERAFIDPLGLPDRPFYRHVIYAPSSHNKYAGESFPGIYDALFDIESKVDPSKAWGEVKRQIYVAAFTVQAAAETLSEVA

NFκB-luciferase EC50, reporter T-cells + HEK293/hCD20/hPSMA, 50 pM anti-CD3×CD20 [1]: 1.72e-10 M
IL-2 production EC50, primary CD4+ T-cells + HEK293/hCD20/hPSMA, 50 pM anti-CD3×CD20 [2]: 2.7e-10 M
EC50 [3]: 3.87 nM
EC50 [4]: 3.05 nM
EC50 [5]: 48 nM
EC50 [6]: 50.9 nM
EC50 [7]: 58.9 nM
EC50 [8]: 0.853 nM
Kd [9]: 0.396 nM
t½ (dissociative half-life) [9]: 146 min
Kd [10]: 0.217 nM
t½ (dissociative half-life) [10]: 182 min
Kd [11]: 272 nM
t½ (dissociative half-life) [11]: 1.7 min
EC50 [12]: 9.58 nM
Kd [13]: 0.251 nM
T½ (dissociative half-life) [13]: 235 min
Kd [14]: 144 nM
T½ (dissociative half-life) [14]: 3.5 min
EC50 [15]: 9.34 nM
B1: bs16429D (bispecific antibody, human IgG4 S228P, kappa)
heavy 1: QVQLQESGPGLVKPSETLSLTCTVSGGSISSYYWSWIRQPPGKGLEWIGYIYYSGITHYNPSLKSRVTISVDTSKIQFSLKLSSVTAADTAVYYCARWGVRRDYYYYGMDVWGQGTTVTVSSASTKGPSVFPLAPCSRSTSESTAALGCLVKDYFPEPVTVSWNSGALTSGVHTFPAVLQSSGLYSLSSVVTVPSSSLGTKTYTCNVDHKPSNTKVDKRVESKYGPPCPPCPAPPVAGPSVFLFPPKPKDTLMISRTPEVTCVVVDVSQEDPEVQFNWYVDGVEVHNAKTKPREEQFNSTYRVVSVLTVLHQDWLNGKEYKCKVSNKGLPSSIEKTISKAKGQPREPQVYTLPPSQEEMTKNQVSLTCLVKGFYPSDIAVEWESNGQPENNYKTTPPVLDSDGSFFLYSRLTVDKSRWQEGNVFSCSVMHEALHNRFTQKSLSLSPGK
heavy 2: QVQLVESGGGVVQPGRSLRLSCAASGFTFSSYGMHWVRQAPGKGLEWVAFMSYDGSNKFYSDSVKGRFTISRDNSRKMLFLQMNNLRAEDTAVYYCARDQYYDFLTDHGVFDYWGQGTLVTVSSASTKGPSVFPLAPCSRSTSESTAALGCLVKDYFPEPVTVSWNSGALTSGVHTFPAVLQSSGLYSLSSVVTVPSSSLGTKTYTCNVDHKPSNTKVDKRVESKYGPPCPPCPAPPVAGPSVFLFPPKPKDTLMISRTPEVTCVVVDVSQEDPEVQFNWYVDGVEVHNAKTKPREEQFNSTYRVVSVLTVLHQDWLNGKEYKCKVSNKGLPSSIEKTISKAKGQPREPQVYTLPPSQEEMTKNQVSLTCLVKGFYPSDIAVEWESNGQPENNYKTTPPVLDSDGSFFLYSRLTVDKSRWQEGNVFSCSVMHEALHNHYTQKSLSLSLGK
light: not shown
notes: also called anti-PSMA×CD28 bispecific antibody; PSMA × CD28 monoclonal antibody

NFκB-luciferase fold induction, reporter T-cells + HEK293/hCD20, 50 pM hIgG4 isotype control (no TCR stimulation) [16]: 0.87 fold
NFκB-luciferase fold induction, reporter T-cells + HEK293/hCD20/hPSMA, 50 pM hIgG4 isotype control (no TCR stimulation) [16]: 0.89 fold
NFκB-luciferase EC50, reporter T-cells + HEK293/hCD20/hPSMA, 50 pM anti-CD3×CD20 [1]: 4.57e-10 M
NFκB-luciferase fold induction, reporter T-cells + HEK293/hCD20, 50 pM anti-CD3×CD20 [1]: 0.92 fold
NFκB-luciferase fold induction, reporter T-cells + HEK293/hCD20/hPSMA, 50 pM anti-CD3×CD20 [1]: 13.6 fold
IL-2 production EC50, primary CD4+ T-cells + HEK293/hCD20/hPSMA, 50 pM anti-CD3×CD20 [2]: 1.5e-10 M
IL-2 production fold induction, primary CD4+ T-cells + HEK293/hCD20, 50 pM anti-CD3×CD20 [2]: 1 fold
IL-2 production fold induction, primary CD4+ T-cells + HEK293/hCD20/hPSMA, 50 pM anti-CD3×CD20 [2]: 165 fold
ratio of binding signal (RLU) HEK293-hCD28/HEK293HZ at 11.1 nM [17]: 41 fold
ratio of binding signal (RLU) C4-2/HEK293HZ at 11.1 nM [18]: 10 fold
EC50 [8]: 5.24 nM
EC50 [12]: 8.47 nM
B2: bs16430D (bispecific antibody, V domains shown)
VH 1: EVQLVESGGGLVQPGGSLRLSCAASGFTFSTYAMTWVRQAPGKGLEWVSFISGSGDNTYYADSVKGRFTISRDNSKNTLYLQMNSLRADDSAIYHCAKDSGYCSSGGCSLYFYYGMDVWGQGTTVTVSS
VH 2: QVQLVESGGGVVQPGRSLRLSCAASGFTFSSYGMHWVRQAPGKGLEWVAVISYAGNNKYYADSVKGRFTVSRDNSKKTLYLQMNSLRSEDTAVYYCAKDSYYDFLTDPDVLDIWGQGTMVTVSS
VL: not shown
notes: two distinct heavy chains with a common light chain; also called anti-PSMA×CD28 bispecific antibody; PSMA × CD28 monoclonal antibody

NFκB-luciferase EC50, reporter T-cells + HEK293/hCD20/hPSMA, 50 pM anti-CD3×CD20 [1]: 2.78e-10 M
IL-2 production EC50, primary CD4+ T-cells + HEK293/hCD20/hPSMA, 50 pM anti-CD3×CD20 [2]: 2.2e-10 M
EC50 [3]: 1.5 nM
EC50 [4]: 6.33 nM
EC50 [5]: 180 nM
EC50 [6]: 167 nM
EC50 [7]: 180 nM
EC50 [12]: 5.31 nM
Kd [13]: 0.137 nM
T½ (dissociative half-life) [13]: 300 min
Kd [14]: 207 nM
T½ (dissociative half-life) [14]: 8.2 min
EC50 [19]: 0.35 nM
B3: bs16431D (bispecific antibody, V domains shown)
VH 1: B2 VH 2
VH 2: EVQLVESGGGLVQPGGSLRLSCAASGFTFSRNNMHWVRQAPGKGLEYVSGISSNGGRTYYADSVKGRFTISRDNSKNTLYLQMGGLRAADMAVYFCTRDDELLSFDYWGQGTLVTVSS
VL: not shown
notes: as for B2

ratio of binding signal (RLU) HEK293-hCD28/HEK293HZ at 11.1 nM [17]: < 1 fold
ratio of binding signal (RLU) C4-2/HEK293HZ at 11.1 nM [18]: 4 fold
EC50 [19]: 0.738 nM
B4: mAb11838P2 (antibody, V domains shown)
VH: QVQLVESGGGVVQPGRSLRLSCAASGFTFSSYGMHWVRQAPGKGLEWVAFMSYDGSNKFYSDSVKGRFTISRDNSRKMLFLQMNNLRAEDTAVYYCARDQYYDFLTDHGVFDYWGQGTLVTVSS
VL: not shown
notes: Bivalent parental anti-PSMA antibody; also called anti-PSMA monoclonal antibody; mAb11838P2 (PSMA)
binding result [12]: no binding (tested: ratio to HEK293HZ less than 3 at 11.1 nM)

binding result [13]: no binding (tested: 10 nM)
T½ (dissociative half-life) [14]: 8.2 min
B5: mAb14216P2 (antibody, V domains shown)
VH: B3 VH 2
VL: not shown
notes: Bivalent parental anti-CD28 antibody; also called anti-CD28 monoclonal antibody
binding result [8]: no binding (tested: ratio to HEK293HZ less than 3 at 11.1 nM)

NFκB-luciferase EC50, reporter T-cells + HEK293/hCD20, 50 pM hIgG4 isotype control (no TCR stimulation) [16]: 5.11e-09 M
NFκB-luciferase EC50, reporter T-cells + HEK293/hCD20/hPSMA, 50 pM hIgG4 isotype control (no TCR stimulation) [16]: 4.9e-09 M
NFκB-luciferase EC50, reporter T-cells + HEK293/hCD20, 50 pM anti-CD3×CD20 [1]: 3.59e-09 M
NFκB-luciferase EC50, reporter T-cells + HEK293/hCD20/hPSMA, 50 pM anti-CD3×CD20 [1]: 3.27e-09 M
IL-2 production EC50, primary CD4+ T-cells + HEK293/hCD20, 50 pM anti-CD3×CD20 [2]: 6.05e-09 M
IL-2 production EC50, primary CD4+ T-cells + HEK293/hCD20/hPSMA, 50 pM anti-CD3×CD20 [2]: 8.69e-09 M
binding result [13]: no binding (tested: 10 nM)
T½ (dissociative half-life) [14]: 3.5 min
binding result [20]: no binding
B6: mAb14226P2 (antibody, V domains shown)
VH: QVQLQESGPGLVKPSETLSLTCTVSGGSISSYYWSWIRQPPGKGLEWIGYIYYSGITHYNPSLKSRVTISVDTSKIQFSLKLSSVTAADTAVYYCARWGVRRDYYYYGMDVWGQGTTVTVSS
VL: not shown
notes: as for B5
